Experimental data as given in patent publication US20200116725.

Tests used:
[1] = system: P120 thrombin-cleavable peptide, Biotin-GGGSGGGSGGfPRSGGGGGC
[2] = system: P213 MMP9-cleavable peptide, Biotin-GGGPLGVRGKGGC
[3] = system: P220 MMP9-cleavable peptide, Biotin-GGGGGGGGGGPLGVRGKGGC
[4] = system: P113 thrombin-cleavable peptide, Biotin-SGGfPRSGGSGGC

Sequence of MMP9 (Active, Human, Recombinant, PF140, Merck Millipore) (chain, as listed by the source): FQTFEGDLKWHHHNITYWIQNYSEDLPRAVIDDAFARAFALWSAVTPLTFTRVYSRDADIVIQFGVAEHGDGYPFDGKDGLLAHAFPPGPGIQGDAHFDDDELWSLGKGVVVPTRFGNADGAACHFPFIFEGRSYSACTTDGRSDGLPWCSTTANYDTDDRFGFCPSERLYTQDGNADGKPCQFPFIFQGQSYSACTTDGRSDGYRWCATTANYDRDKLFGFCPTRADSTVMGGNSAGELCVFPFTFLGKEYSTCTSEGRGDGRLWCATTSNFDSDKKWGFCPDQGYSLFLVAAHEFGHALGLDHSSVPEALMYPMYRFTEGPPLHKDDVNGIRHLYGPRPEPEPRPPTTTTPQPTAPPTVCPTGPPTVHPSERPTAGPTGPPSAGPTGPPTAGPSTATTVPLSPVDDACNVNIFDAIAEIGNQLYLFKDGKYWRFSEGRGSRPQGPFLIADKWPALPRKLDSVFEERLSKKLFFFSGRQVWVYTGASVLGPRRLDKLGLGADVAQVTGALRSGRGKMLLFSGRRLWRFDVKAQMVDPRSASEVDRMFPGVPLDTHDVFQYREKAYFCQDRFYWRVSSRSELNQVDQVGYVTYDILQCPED
Sequence of P120 thrombin-cleavable peptide, Biotin-GGGSGGGSGGfPRSGGGGGC (chain, as listed by the source): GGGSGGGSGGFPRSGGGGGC

| Substance | % Cleavage (free AuNC fraction: 7-12 mL), gel filtration chromatography with catalytic activity readout; AuNC-P120-NAv + MMP9 (12 h) [1] [%] | fraction of AuNCs cleaved from AuNC-P213-NAv within 1 h, FCS, 50 nM MMP9 [2] | rate of cleavage by FCS (linear region, 50 nM MMP9), AuNC-P213-NAv complex [2] | % Cleavage (free AuNC fraction: 7-12 mL), gel filtration chromatography with catalytic activity readout; AuNC-P220-NAv + MMP7/9/13 (12 h) [3] | % Cleavage (free AuNC fraction: 7-12 mL), gel filtration chromatography with catalytic activity readout; AuNC-P220-NAv + MMP9 (12 h) [3] [%] | fraction of AuNCs cleaved from AuNC-P220-NAv within 1 h, FCS, 50 nM MMP9 [3] | rate of cleavage by FCS (linear region, 50 nM MMP9), AuNC-P220-NAv complex [3] [% AuNC cleaved per minute] | % Cleavage (free AuNC fraction: 7-12 mL), gel filtration chromatography with catalytic activity readout; AuNC-P113-NAv + THR (12 h) [4] [%] | % Cleavage (free AuNC fraction: 7-12 mL), gel filtration chromatography with catalytic activity readout; AuNC-1:5-P120-NAv + THR (1 h), ca. 20 biotin ligands per AuNC [1] [%] | % Cleavage (free AuNC fraction: 7-12 mL), gel filtration chromatography with catalytic activity readout; AuNC-1:20-P120-NAv + THR (1 h), ca. 5 biotin ligands per AuNC [1] [%] | % Cleavage (free AuNC fraction: 7-12 mL), gel filtration chromatography with catalytic activity readout; AuNC-P120-NAv + THR (12 h) [1] [%] | % Cleavage (free AuNC fraction: 7-12 mL), gel filtration chromatography with catalytic activity readout; AuNC-P220-NAv + THR (12 h) [3] [%] |
| --- | --- | --- | --- | --- | --- | --- | --- | --- | --- | --- | --- | --- |
| MMP9 (Active, Human, Recombinant, PF140, Merck Millipore) | 7.1 | only 20% AuNCs are cleaved from the AuNC-P213-NAv complex | only 0.08% AuNC cleaved per minute | MMP9: 54.9% | 75.1 | 80% AuNCs are cleaved within the first hour of incubation with MMP9 | 3 |  |  |  |  |  |
| MMP13 (Active, Human, Recombinant, 444287) |  |  |  | MMP13: 29.8% |  |  |  |  |  |  |  |  |
| thrombin from human plasma (T7009, Sigma) |  |  |  |  |  |  |  | 21.8 | 49.6 | 89.9 | 90.2 | 5.5 |
